Laboratory results as given in patent US20220211812A1 (Bristol-Myers Squibb, published 2022).

T1: human RXFP1 receptor (human, UniProt Q9HBX9 1-757)
T1 sequence (looked up): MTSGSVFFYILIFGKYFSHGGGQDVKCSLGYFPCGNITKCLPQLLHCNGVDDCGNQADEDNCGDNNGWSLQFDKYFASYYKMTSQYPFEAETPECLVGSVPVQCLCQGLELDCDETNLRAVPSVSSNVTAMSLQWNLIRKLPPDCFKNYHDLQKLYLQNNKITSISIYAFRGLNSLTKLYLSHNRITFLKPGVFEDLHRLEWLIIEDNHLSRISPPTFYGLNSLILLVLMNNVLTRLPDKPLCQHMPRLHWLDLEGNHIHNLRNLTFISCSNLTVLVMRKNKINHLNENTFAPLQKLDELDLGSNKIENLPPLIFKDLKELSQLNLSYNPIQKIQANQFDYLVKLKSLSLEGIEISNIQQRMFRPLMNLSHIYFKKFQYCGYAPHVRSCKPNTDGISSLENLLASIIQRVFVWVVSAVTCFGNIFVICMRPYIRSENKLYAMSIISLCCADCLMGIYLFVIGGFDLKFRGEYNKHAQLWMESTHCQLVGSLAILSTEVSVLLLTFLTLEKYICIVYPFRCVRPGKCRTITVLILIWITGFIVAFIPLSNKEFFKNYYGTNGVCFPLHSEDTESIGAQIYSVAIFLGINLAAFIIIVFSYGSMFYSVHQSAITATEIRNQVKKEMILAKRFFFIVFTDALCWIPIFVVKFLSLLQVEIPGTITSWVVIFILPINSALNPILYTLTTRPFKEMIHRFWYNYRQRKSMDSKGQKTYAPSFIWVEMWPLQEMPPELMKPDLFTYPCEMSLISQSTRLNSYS


Target: T1, human RXFP1 receptor
Assay: cell-based or functional assay

| Binder | hRXFP1/CHO-K1 cAMP EC50 (nM, avg) [nM] |
| --- | --- |
| AQ1-KK-Glu^γ-C14-CH3 (ligand, not fully specified; Glu^γ bonded by amide to fatty acid -C14-CH3; oxime-linked to pAcF of the A chain; pAcF (para-acetyl-L-phenylalanine) at position 1, oxime-linked to PK enhancer KK-Glu^γ-C14-CH3) chain 1: XLYSALANKCCHVGCTKRSLARFC chain 2: ASWMEEVIKLCGRELVRAQIAICGMSTWS peptide: KKE | 0.35 |
| AQ1-Glu-C13-CH3 (ligand, not fully specified; pAcF (para-acetyl-L-phenylalanine) at position 1, oxime-linked to PK enhancer Glu-C13-CH3) chain 1: XLYSALANKCCHVGCTKRSLARFC chain 2: ASWMEEVIKLCGRELVRAQIAICGMSTWS | 0.95 |
| AQ1-GSPGSP-Glu^γ-C14-COOH (ligand, not fully specified; Glu^γ bonded by amide to fatty acid -C14-COOH; oxime-linked to pAcF of the A chain; pAcF (para-acetyl-L-phenylalanine) at position 1, oxime-linked to PK enhancer GSPGSP-Glu^γ-C14-COOH) chain 1: XLYSALANKCCHVGCTKRSLARFC chain 2: ASWMEEVIKLCGRELVRAQIAICGMSTWS peptide: GSPGSPE | 0.29 |
| AQ1-KK-Glu^γ-C14-COOH (ligand, not fully specified; Glu^γ bonded by amide to fatty acid -C14-COOH; oxime-linked to pAcF of the A chain; pAcF (para-acetyl-L-phenylalanine) at position 1, oxime-linked to PK enhancer …) chain 1: XLYSALANKCCHVGCTKRSLARFC chain 2: ASWMEEVIKLCGRELVRAQIAICGMSTWS peptide: KKE | 0.34 |
| AQ1-EEEEEE-Glu^γ-C14-CH3 (ligand, not fully specified; Glu^γ bonded by amide to fatty acid -C14-CH3; oxime-linked to pAcF of the A chain; pAcF (para-acetyl-L-phenylalanine) at position 1, oxime-linked to PK enhancer EEEEEE-Glu^γ-C14-CH3) chain 1: XLYSALANKCCHVGCTKRSLARFC chain 2: ASWMEEVIKLCGRELVRAQIAICGMSTWS peptide: EEEEEEE | 0.38 |
| AQ1-KGGGS-Glu^γ-C14-COOH (ligand, not fully specified; Glu^γ bonded by amide to fatty acid -C14-COOH; oxime-linked to pAcF of the A chain; pAcF (para-acetyl-L-phenylalanine) at position 1, oxime-linked to PK enhancer KGGGS-Glu^γ-C14-COOH) chain 1: XLYSALANKCCHVGCTKRSLARFC chain 2: ASWMEEVIKLCGRELVRAQIAICGMSTWS peptide: KGGGSE | 0.34 |
| AQ1-PEG36-Glu-C13-COOH (ligand, not fully specified; pAcF (para-acetyl-L-phenylalanine) at position 1, oxime-linked to PK enhancer PEG36-Glu-C13-COOH) chain 1: XLYSALANKCCHVGCTKRSLARFC chain 2: ASWMEEVIKLCGRELVRAQIAICGMSTWS | 0.25 |
| AQ1-KK-Glu^γ-C15-COOH (ligand, not fully specified; Glu^γ bonded by amide to fatty acid -C15-COOH; oxime-linked to pAcF of the A chain; pAcF (para-acetyl-L-phenylalanine) at position 1, oxime-linked to PK enhancer …) chain 1: XLYSALANKCCHVGCTKRSLARFC chain 2: ASWMEEVIKLCGRELVRAQIAICGMSTWS peptide: KKE | 0.4 |
| AQ1-KGPKGP-Glu^γ-C14-COOH (ligand, not fully specified; Glu^γ bonded by amide to fatty acid -C14-COOH; oxime-linked to pAcF of the A chain; pAcF (para-acetyl-L-phenylalanine) at position 1, oxime-linked to PK enhancer KGPKGP-Glu^γ-C14-COOH) chain 1: XLYSALANKCCHVGCTKRSLARFC chain 2: ASWMEEVIKLCGRELVRAQIAICGMSTWS peptide: KGPKGPE | 0.23 |
| AQ1-KKGGS-Glu^γ -C15-COOH (ligand, not fully specified; Glu^γ bonded by amide to fatty acid -C15-COOH; oxime-linked to pAcF of the A chain; pAcF (para-acetyl-L-phenylalanine) at position 1, oxime-linked to PK enhancer KKGGS-Glu^γ-C15-COOH) chain 1: XLYSALANKCCHVGCTKRSLARFC chain 2: ASWMEEVIKLCGRELVRAQIAICGMSTWS peptide: KKGGSE | 1.36 |
| AQ1-20kDa PEG (ligand, pAcF (para-acetyl-L-phenylalanine) at position 1, oxime-linked to 20 kDa PEG) chain 1: XLYSALANKCCHVGCTKRSLARFC chain 2: ASWMEEVIKLCGRELVRAQIAICGMSTWS | 3.22 |
| AQ1-EGGS-Glu^γ-C14-COOH (ligand, not fully specified; Glu^γ bonded by amide to fatty acid -C14-COOH; oxime-linked to pAcF of the A chain; pAcF (para-acetyl-L-phenylalanine) at position 1, oxime-linked to PK enhancer EGGS-Glu^γ-C14-COOH) chain 1: XLYSALANKCCHVGCTKRSLARFC chain 2: ASWMEEVIKLCGRELVRAQIAICGMSTWS peptide: EGGSE | 0.33 |
| AQ1-KGP-Glu^γ-C14-COOH (ligand, not fully specified; Glu^γ bonded by amide to fatty acid -C14-COOH; oxime-linked to pAcF of the A chain; pAcF (para-acetyl-L-phenylalanine) at position 1, oxime-linked to PK enhancer KGP-Glu^γ-C14-COOH) chain 1: XLYSALANKCCHVGCTKRSLARFC chain 2: ASWMEEVIKLCGRELVRAQIAICGMSTWS peptide: KGPE | 0.27 |
| AQ1-PEG36-Glu-C13-CH3 (ligand, not fully specified; pAcF (para-acetyl-L-phenylalanine) at position 1, oxime-linked to PK enhancer PEG36-Glu-C13-CH3) chain 1: XLYSALANKCCHVGCTKRSLARFC chain 2: ASWMEEVIKLCGRELVRAQIAICGMSTWS | 0.15 |
| AQ1-EGGGP-Glu^γ-C14-COOH (ligand, not fully specified; Glu^γ bonded by amide to fatty acid -C14-COOH; oxime-linked to pAcF of the A chain; pAcF (para-acetyl-L-phenylalanine) at position 1, oxime-linked to PK enhancer EGGGP-Glu^γ-C14-COOH) chain 1: XLYSALANKCCHVGCTKRSLARFC chain 2: ASWMEEVIKLCGRELVRAQIAICGMSTWS peptide: EGGGPE | 0.44 |
| AQ1-GGGGS-Glu^γ (SEQ ID NO: 139)-C14-COOH (ligand, not fully specified; Glu^γ bonded by amide to fatty acid -C14-COOH (-(C=O)-(CH2)13-COOH); oxime-linked to pAcF of the A chain; modified para-acetyl-L-phenylalanine at the N-terminus (position 1), oxime-linked to PK enhancer GGGGS-Glu^γ-C14-COOH (Formula III)) chain 1: XLYSALANKCCHVGCTKRSLARFC chain 2: ASWMEEVIKLCGRELVRAQIAICGMSTWS peptide: GGGGSE | 0.28 |
| AQ1-Glu-C13-COOH (ligand, not fully specified; pAcF (para-acetyl-L-phenylalanine) at position 1, oxime-linked to PK enhancer Glu-C13-COOH) chain 1: XLYSALANKCCHVGCTKRSLARFC chain 2: ASWMEEVIKLCGRELVRAQIAICGMSTWS | 0.18 |
| AQ1-Spermine-Glu^γ-C14-COOH (ligand, not fully specified; pAcF (para-acetyl-L-phenylalanine) at position 1, oxime-linked to PK enhancer Spermine-Glu^γ-C14-COOH (compound 27 of Example 6)) chain 1: XLYSALANKCCHVGCTKRSLARFC chain 2: ASWMEEVIKLCGRELVRAQIAICGMSTWS | 0.39 |
| AQ1-KGGGSE-Glu^γ-C14-COOH (ligand, not fully specified; Glu^γ bonded by amide to fatty acid -C14-COOH; oxime-linked to pAcF of the A chain; pAcF (para-acetyl-L-phenylalanine) at position 1, oxime-linked to PK enhancer KGGGSE-Glu^γ-C14-COOH) chain 1: XLYSALANKCCHVGCTKRSLARFC chain 2: ASWMEEVIKLCGRELVRAQIAICGMSTWS peptide: KGGGSEE | 0.37 |
| AQ1-EAQKAQAEAQKAQAEAQKAQA-Glu^γ-C15-COOH (ligand, not fully specified; Glu^γ bonded by amide to fatty acid -C15-COOH; oxime-linked to pAcF of the A chain; pAcF (para-acetyl-L-phenylalanine) at position 1, oxime-linked to PK enhancer EAQKAQAEAQKAQAEAQKAQA-Glu^γ-C15-COOH) chain 1: XLYSALANKCCHVGCTKRSLARFC chain 2: ASWMEEVIKLCGRELVRAQIAICGMSTWS peptide: EAQKAQAEAQKAQAEAQKAQAE | 4.96 |
| AQ1-GGGGP-Glu^γ-C14-COOH (ligand, not fully specified; Glu^γ bonded by amide to fatty acid -C14-COOH; oxime-linked to pAcF of the A chain; pAcF (para-acetyl-L-phenylalanine) at position 1, oxime-linked to PK enhancer GGGGP-Glu^γ-C14-COOH) chain 1: XLYSALANKCCHVGCTKRSLARFC chain 2: ASWMEEVIKLCGRELVRAQIAICGMSTWS peptide: GGGGPE | 0.39 |
| AQ1-KK-Glu^γ-C13-COOH (ligand, not fully specified; Glu^γ bonded by amide to fatty acid -C13-COOH; oxime-linked to pAcF of the A chain; pAcF (para-acetyl-L-phenylalanine) at position 1, oxime-linked to PK enhancer …) chain 1: XLYSALANKCCHVGCTKRSLARFC chain 2: ASWMEEVIKLCGRELVRAQIAICGMSTWS peptide: KKE | 0.1 |
| AQ1-SGGGS-Glu^γ-C14-COOH (ligand, not fully specified; Glu^γ bonded by amide to fatty acid -C14-COOH; oxime-linked to pAcF of the A chain; pAcF (para-acetyl-L-phenylalanine) at position 1, oxime-linked to PK enhancer SGGGS-Glu^γ-C14-COOH) chain 1: XLYSALANKCCHVGCTKRSLARFC chain 2: ASWMEEVIKLCGRELVRAQIAICGMSTWS peptide: SGGGSE | 0.32 |
| AQ1-KGPGSE-Glu^γ-C14-COOH (ligand, not fully specified; Glu^γ bonded by amide to fatty acid -C14-COOH; oxime-linked to pAcF of the A chain; pAcF (para-acetyl-L-phenylalanine) at position 1, oxime-linked to PK enhancer KGPGSE-Glu^γ-C14-COOH) chain 1: XLYSALANKCCHVGCTKRSLARFC chain 2: ASWMEEVIKLCGRELVRAQIAICGMSTWS peptide: KGPGSEE | 0.6 |
| AQ1-KGGEEKKKEKEKEPKGGEEKKKEKEK-Glu^γ-C15-COOH (ligand, not fully specified; Glu^γ bonded by amide to fatty acid -C15-COOH; oxime-linked to pAcF of the A chain; pAcF (para-acetyl-L-phenylalanine) at position 1, oxime-linked to PK enhancer KGGEEKKKEKEKEPKGGEEKKKEKEK-Glu^γ-C15-COOH) chain 1: XLYSALANKCCHVGCTKRSLARFC chain 2: ASWMEEVIKLCGRELVRAQIAICGMSTWS peptide: KGGEEKKKEKEKEPKGGEEKKKEKEKE | 1.81 |
